For test [1], the target named is T1, human CTLA4 expressed on HEK293-CTLA4 cells (human, UniProt P16410 36-223).
T1 construct: whole, on cells; also called human CTLA4 on the cell surface
The experiment in a line: competitive flow cytometry; taken as HEK293-CTLA4 cells with CD86-muFc as the blocked ligand, from the order of paragraph 274 and paragraph 275; the panel has no title. (Flow cytometry measures light scatter and fluorescence of single cells or particles in a stream.)

Test [2] has as its target CTLA4-muFc (fusion protein of human CTLA4 and mouse Fc) (human). As to the kind of experiment: competitive flow cytometry; taken as CTLA4-muFc with human CD86 on HEK293-CD86 cells as the blocked ligand, from the order of paragraph 274 and paragraph 275; the panel has no title.
For test [3], the target named is T1, human CTLA4 expressed on HEK293-CTLA4 …. The experiment in a line: flow cytometry on HEK293-CTLA4 cells, MFI, four-parameter fit. The procedure: 3% of BSA/PBS was used to adjust the density of HEK293-CTLA4 cells to 3×10⁶ cells/ml.
Then, APC-goat anti-mouse IgG at a dilution of 1:100 was used, and placed on ice for 30 min for reaction. After that, they were washed with 1% of BSA/PBS and resuspended, and then detected on a FACS machine (using a Guava EasyCyte instrument).
The flow cytometry results were analyzed by Guava 5.3.1 to calculate the mean fluorescence intensity (MFI) of the detected samples. The log values of the obtained MFI versus the concentrations of the samples were calculated, and the experimental results were fit with four parameters using GraphPad Prism 6.0.

B1: KN044 (VHH)
VHH: QVQLVESGGGLVQPGGSLRLSCAASGYIYSAYCMGWFRQAPGKGLEGVAAIYIGGGSTYYADSVKGRFTISRDNSKNTLYLQMNSLRAEDTAVYYCAADVIPTETCLGGSWSGPFGYWGQGTLVTVSS
As to B1, the “IC50 (read off the curve)” value in test [1] is approximately 8 nM; in test [2], approximately 10 nM. In test [3], this molecule returned an EC50 of 2.01 nM.

One may read the EC50 as the concentration giving half of the maximal effect. The low end stands for greater potency, the high end for weaker potency.

The values above are taken from patent US20220251207A1 (JIANGSU ALPHAMAB BIOPHARMACEUTICALS, published 2022).
